# Laboratory results reported in paper PMC3155514.
# pKd: −log10 of the molar value.
# Biological target: T1, HsRAD51(H294V) H294V (Homo sapiens) (UniProt Q06609)
# T1 sequence: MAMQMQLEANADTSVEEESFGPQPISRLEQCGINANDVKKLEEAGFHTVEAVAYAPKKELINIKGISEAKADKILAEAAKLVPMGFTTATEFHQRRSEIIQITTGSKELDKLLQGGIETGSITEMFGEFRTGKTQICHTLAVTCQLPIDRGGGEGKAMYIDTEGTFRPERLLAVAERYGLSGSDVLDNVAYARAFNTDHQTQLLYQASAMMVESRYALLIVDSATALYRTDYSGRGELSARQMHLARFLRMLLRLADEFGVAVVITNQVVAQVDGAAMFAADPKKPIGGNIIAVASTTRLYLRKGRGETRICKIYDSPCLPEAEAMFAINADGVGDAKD
# Test: SPR
# Conditions: SPR (Biacore 3000): 20 mM HEPES pH 7.5, 10% glycerol, 1 mM DTT, 1 mM MgCl2, 0.005% P-20, 2.5 mM indicated nucleotide, 150 mM KCl when indicated (text: salt …)
sequence,measurement,value
TCGAGAGGGTAAACCACAATTATTGATATAAAATAGTTTTGGGTAGGCGA (double strand) [50 bp dsDNA],pKd,6.33
